# US20190381169A1, “PHARMACEUTICAL COMBINATIONS FOR IMMUNOTHERAPY” (Technische Universitat Dresden, priority 2014, published 2019)
# “Also recorded” adds a separate entry of the source.
# Experiments:
# p75^NTR [1] = target: T1, p75^NTR (Homo sapiens, UniProt P08138); test: Th2 prone GvHD xenotransplantation model: NSG mice given human autologous T-cells and PDCs
# T1 sequence (P08138 29-427): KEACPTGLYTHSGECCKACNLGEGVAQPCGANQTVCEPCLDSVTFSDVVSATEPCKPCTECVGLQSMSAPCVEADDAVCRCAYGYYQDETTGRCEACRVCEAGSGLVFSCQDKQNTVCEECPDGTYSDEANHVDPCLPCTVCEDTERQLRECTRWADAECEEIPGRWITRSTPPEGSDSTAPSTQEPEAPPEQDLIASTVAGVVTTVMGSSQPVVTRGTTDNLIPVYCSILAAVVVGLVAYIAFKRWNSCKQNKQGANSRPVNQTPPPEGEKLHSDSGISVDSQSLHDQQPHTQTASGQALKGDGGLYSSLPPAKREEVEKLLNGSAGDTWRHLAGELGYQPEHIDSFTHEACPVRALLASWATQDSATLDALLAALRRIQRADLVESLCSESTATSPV
# Experimental: Recipient mice from NSG mouse strain were pre-condition by irradiation with 3 Gy 24 hours before transplantation of human cells
# For scoring of GvHD incidence and survival transplanted mice were monitored daily for weight, behaviour, skin, activity, fur and other parameters.
# Human, autologous T-cells and PDCs were stimulated either with CpG B or not. Overnight co-cultured was done in the absence or presence of NGF. One day later human cells were transplanted into irradiated NSG mice by i.v. injection.
# p75^NTR [2] = target: T2, p75^NTR (Mus musculus, UniProt Q9Z0W1); test: Expression of MHC and co-stimulatory molecules on murine PDCs; assay type: cell-based
# T2 construct: endogenous in cells; host or cells: murine plasmacytoid dendritic cells differentiated in vitro from bone marrow with Flt3-L (p75NTR+/+ wildtype; p75NTR-/- as control)
# T2 sequence (Q9Z0W1 32-427): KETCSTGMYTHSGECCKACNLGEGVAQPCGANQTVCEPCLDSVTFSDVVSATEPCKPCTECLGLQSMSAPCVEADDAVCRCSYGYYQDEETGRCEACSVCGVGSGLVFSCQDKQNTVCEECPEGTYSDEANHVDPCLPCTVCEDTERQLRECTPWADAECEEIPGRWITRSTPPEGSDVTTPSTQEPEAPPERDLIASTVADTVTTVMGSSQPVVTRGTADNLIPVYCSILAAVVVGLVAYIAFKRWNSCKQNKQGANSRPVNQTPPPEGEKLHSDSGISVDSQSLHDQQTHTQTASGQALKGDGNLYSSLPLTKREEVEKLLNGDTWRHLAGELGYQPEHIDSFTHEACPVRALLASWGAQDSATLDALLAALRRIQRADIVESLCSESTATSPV
# p75^NTR [3] = target: T1, p75^NTR; test: IFNα secretion by ODN 2216 stimulated human PDC (ELISA); assay type: cell-based; design: nerve growth factor receptor p75^NTR, which is expressed by human and murine plasmacytoid dendritic cells (PDC); endogenous in cells; host or cells: primary human plasmacytoid dendritic cells (BDCA-4+ selection) from buffy coats or from peripheral blood of allergic donors; settings: ODN 2216 plus NGF 200 ng/ml vs ODN 2216 without NGF; 14 hours; p=0.0031
# Experimental: Blood samples used for cell purification were obtained from two different sources: Fresh buffy coat samples, not older than 8 hours, served as the source of PDC used in oligodeoxynucleotides (ODN) and anti FcεRIα stimulation experiments. […]
# Alike CD4^+ T helper cells isolation from peripheral blood mononuclear cells, total cell numbers were determined prior to purification of PDC. […] Magnetic cell separation procedure as described for first LS column was repeated for second MS column except that washing of the MS column was carried out with 500 μl PBS E/B. Purified PDC were counted and purity was assessed by flow cytometric analysis after staining the cells with monoclonal mouse anti human BDCA2-PE (Miltenyi Biotech) and monoclonal mouse anti human CD271-APC (Miltenyi Biotech). […]
# [4] = p75^NTR+/+ PDCs stimulated with CpG B, presence of NGF
# [5] = p75^NTR+/+ PDCs stimulated with ovalbumin (OVA), NGF added
substance,measurement,setting,value
"NGF: Nerve growth factor, best characterized neurotrophin; natural p75^NTR agonist (R&D Systems)",mortality (survival),p75^NTR [1]; CpG B stimulated PDCs co-cultured in presence of NGF before transplantation,significantly increased mortality
same,severity of GvHD (cumulative GvHD incidence),"p75^NTR [1]; CpG B stimulated PDCs co-cultured with T-cells in presence of NGF before i.v. transplantation, 12 weeks",increased severity of GvHD
same,cumulative GvHD incidence or survival without CpG B,"p75^NTR [1]; PDCs cultured without TLR stimulating CpG B, data not shown",no NGF dependent effect; also recorded: abolished the accelerating NGF effect
same,expression of MHC-II,"p75^NTR [2]; p75^NTR+/+ PDCs stimulated with CpG A, presence of NGF",reduced expression; also recorded: decreased expression
same,expression of MHC I,p75^NTR [2]; [4],further increased expression
same,expression of MHC-II,p75^NTR [2]; [4],increased expression; also recorded: further increase
same,expression of ICOS-L and MHC-II,p75^NTR [2]; [5],further increased; also recorded: increased expression
same,"expression of MHC-I, PD-L1 and Ox40-L",p75^NTR [2]; [5],altered the expression; also recorded: decreased expression
same,"expression of MHC-I, PD-L1 and Ox40-L on p75^NTR−/− PDCs","p75^NTR [2]; p75^NTR−/− PDCs stimulated with ovalbumin, NGF added",but not on p75^NTR−/− PDCs
same,IFNα secretion,p75^NTR [3],significant reduction
